This note sets out measurements from patent US20210403579A1 (DELINIA, published 2021).

Sequences and labels used below:
T1: Human ST2 (human, UniProt Q01638 19-328, limits assumed)
T1 construct: also called human ST2 protein; Interleukin 1 receptor-like 1
T1 sequence (looked up): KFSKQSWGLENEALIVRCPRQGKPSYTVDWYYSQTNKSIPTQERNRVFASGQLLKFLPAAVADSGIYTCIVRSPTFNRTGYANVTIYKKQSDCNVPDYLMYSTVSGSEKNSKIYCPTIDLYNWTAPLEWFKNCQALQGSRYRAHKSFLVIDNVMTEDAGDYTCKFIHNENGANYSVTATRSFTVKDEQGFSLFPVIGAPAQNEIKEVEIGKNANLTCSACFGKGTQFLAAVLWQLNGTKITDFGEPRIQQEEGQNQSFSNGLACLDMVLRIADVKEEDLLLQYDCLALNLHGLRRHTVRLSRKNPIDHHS

B1: Human ST2 IgG1 Antibody 54 (antibody, V domains shown)
VH: EVQLLESGGGLVQPGGSLRLSCAASGFTVSSNYMSWVRQAPGKGLEWVSAISGSGGSTYYADSVKGRFTISRDNSKNTLYLQMNSLRAEDTAVYYCARGRFGSRDVWGKGTTVTVSS
VL: not shown
notes: IgG1; also called ST2 Antibody 54
B2: Human ST2 IgG1 Antibody 45 (antibody, V domains shown)
VH: QVQLVQSGAEVKKPGSSVKVSCKASGGTFSSYAISWVRQAPGQGLEWMGGIVPIFETANYAQKFQGRVTITADESTSTAYMELSSLRSEDTAVYYCARDTPNFDYWGQGTLVTVSS
VL: not shown
notes: IgG1; also called ST2 Antibody 45
B3: Human ST2 IgG1 Antibody 65 (antibody, V domains shown)
VH: B2 VH with V52I, E56G, T100N, N102D
VL: DIQMTQSPSSLSASVGDRVTITCRASQGISNYLNWYQQKPGKAPKLLIYAASSLQSGVPSRFSGSGSGTDFTLTISSLQPEDFATYYCQQSYRTPITFGQGTRLEIKR
notes: IgG1; also called ST2 Antibody 65
B4: Human ST2 IgG1 Antibody 42 (antibody, V domains shown)
VH: QVQLVQSGAEVKKPGASVKVSCKASGYTFNSHWVHWVRQAPGQGLEWMGWISAYNGNTNYAQKLQGRVTMTRDTSTSTVYMELSSLRSEDTAVYYCASGDYPYYYYGMDVWGQGTTVTVSS
VL: DIQMTQSPSSLSASVGDRVTITCRASQGVANWLAWYQQKPGKAPKLLIYSASNLQSGVPSRFSGSGSGTDFTLTISSLQPEDFATYYCQQSSSFPLTFGQSTRLEIKR
notes: IgG1; also called ST2 Antibody 42
B5: Human ST2 IgG1 Antibody 37 (antibody, V domains shown)
VH: EVQLLESGGGLVQPGGSLRLSCAASGFTFTDAWMNWVRQAPGKGLEWVSTISVSVGVTYYADSVKGRFTISRDNSKNTLYLQMNSLRAEDTAVYYCATIGSMATIRKGATDAFDIWGQGTLVTVSS
VL: B3 VL with G28R, S30N, N31S, S53T, R93S, I96P, Q100G, R103K, L104V
notes: IgG1; also called ST2 Antibody 37
B6: Human ST2 IgG1 Antibody 46 (antibody, V domains shown)
VH: EVQLLESGGGLVKPGGSLRLSCAASGFTFSSYWMSWVRQAPGKGLEWVSSISGTSNYMYYADSVKGRFTISRDDSKNTLYLQMNSLKTEDTAVYYCARDRGFLGYFDYWGQGTLVTVSS
VL: DIQMTQSPSSLSASVGDRVTITCQASQYISNYLNWYQQKPGKAPKLLIYGASTLQSGVPSRFSGSGSGTDFTLTISSLQPEDFATYYCQQSQSTPLTFGPGTKVDIKR
notes: IgG1; also called ST2 Antibody 46
B7: Human ST2 IgG1 Antibody 44 (antibody, V domains shown)
VH: EVQLLESGGGLVKPGGSLRLSCAASGFTFSSYWMSWVRQAPGKGLEWVSAISGTAINTYYADSVKGRFTISRDDSKNTLYLQMNSLKTEDTAVYYCARVRRDSSGGGAFDIWGQGTMVTVSS
VL: B3 VL with Y32N, S56T, R93S, I96P, R103K, L104V
notes: IgG1; also called ST2 Antibody 44
B8: Human ST2 IgG1 Antibody 40 (antibody, V domains shown)
VH: QVQLVQSGAEVKKPGASVKVSCKASGYTFTSYYIHWVRQAPGQGLEWMGIINPSADTTTYAQQFQGRVTMTRDTSTSTVYMELSSLRSEDTAVYYCARTPGNYGGNSLGYYYYYGMDVWGQGTLVTVSS
VL: B6 VL with Q24R, Y28S, I29V, S30G, N31T, Y32W, N34A, G50A, Q92Y, T94S
notes: IgG1; also called ST2 Antibody 40
B9: Human ST2 IgG1 Antibody 43 (antibody, V domains shown)
VH: QVQLVQSGAQVKKPGASVKVSCKASGYTFSSYYIHWVRQAPGQGLEWMGWINPHSGGTNYGQEFQGRVTMTRDTSTSTVYMELSSLRSEDTAVYYCARDSSGMGATIGYWGQGTLVTVSS
VL: DIQMTQSPSSLSASVGDRVTITCRASQSVNRRLAWYQQKPGKAPKLLIYAASTLQSGVPSRFSGSGSGTDFTLTISSLQPEDFATYYCQQGNSFPITFGQGTKVEIKR
notes: IgG1; also called ST2 Antibody 43
B10: Human ST2 IgG1 Antibody 48 (antibody, V domains shown)
VH: EVQLLQSGGGLVQPGGSLRLSCAASEFTFSNAWMSWVRQAPGKGLEWVSTISGTSRYTYYADSVKGRFTISRDNSKNSLYLQMNSLRAEDTAVYYCARDQDGRLDYWGQGTLVTVSS
VL: B9 VL with S28N, V29I, N30G, R31S, R32W, A50R, G91S, N92Y, F94T, I96Y
notes: IgG1; also called ST2 Antibody 48
B11: Human ST2 IgG1 Antibody 50 (antibody, V domains shown)
VH: QVQLVQSGAEVKKPGASVKVSCKASGAAFNTVAISWVRQAPGQGLEWMGWMNPNSGNTGYAQKFQGRVTMTRDTSTSTVYMELSSLRSEDTAVYYCARTPAAAGTVYFDYWGQGTLVTVSS
VL: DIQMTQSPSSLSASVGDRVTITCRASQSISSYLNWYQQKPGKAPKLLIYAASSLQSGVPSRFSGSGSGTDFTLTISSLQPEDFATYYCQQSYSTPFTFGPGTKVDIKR
notes: IgG1; also called ST2 Antibody 50
B12: Human ST2 IgG1 Antibody 47 (antibody, V domains shown)
VH: QVQLVQSGAEVKKPGSSVKVSCKASGYTFTNYYMHWVRQAPGQGLEWMGGIIPIFGTANYAQKFQGRVTITADESTSTAYMELSSLRSEDTAVYYCARGGYYDSSQFDIWGQGTMVTVSS
VL: not shown
notes: IgG1; also called ST2 Antibody 47
B13: Human ST2 IgG1 Antibody 49 (antibody, V domains shown)
VH: QVQLVQSGAEVKKPGASVKVSCKASGGTLSSYAISWVRQAPGQGLEWMGGISPYNGKANYAEKLQGRVTMTRDTSTSTVYMELSSLRSEDTAVYYCAIRSIAAREGVYYYYMDVWGKGTTVTVSS
VL: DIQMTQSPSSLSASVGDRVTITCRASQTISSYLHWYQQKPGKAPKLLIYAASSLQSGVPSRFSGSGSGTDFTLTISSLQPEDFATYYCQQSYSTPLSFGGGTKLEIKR
notes: IgG1; also called ST2 Antibody 49
B14: Human ST2 IgG1 Antibody 52 (antibody, V domains shown)
VH: QVQLVQSGAEVKKPGSSVKVSCKASGGTFSNYAISWVRQAPGQGLEWMGWISAYNGNTNYAQKFQGRVTITADESTSTAYMELSSLRSEDTAVYYCARLSTVTTRPYYYYGMDVWGQGTTVTVSS
VL: DIVMTQSPLSLPVTPGEPASISCRSSQSLLHSNGYNYLDWYLQKPGQSPQLLIYAASSLQGGVPDRFSGSGSGTDFTLKISRVEAEDVGVYYCMQGTHWPTFGQGTKVEIKR
notes: IgG1; also called ST2 Antibody 52
B15: Human ST2 IgG1 Antibody 39 (antibody, V domains shown)
VH: QVQLVQSGAEVKKPGSSVKVSCKASGYTFTSYYMQWVRQAPGQGLEWMGGIIPIFGTANYAQKFQGRVTITADESTSTAYMELSSLRSEDTAVYYCARARFGAVDYWGQGTLVTVSS
VL: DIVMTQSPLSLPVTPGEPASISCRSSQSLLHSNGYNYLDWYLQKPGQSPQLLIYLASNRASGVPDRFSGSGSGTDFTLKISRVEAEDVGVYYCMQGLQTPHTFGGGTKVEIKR
notes: IgG1; also called ST2 Antibody 39
B16: Human ST2 IgG1 Antibody 41 (antibody, V domains shown)
VH: QVQLVQSGAEVKKPGSSVKVSCKASGYTFTDYQMHWVRQAPGQGLEWVGVINPGGGSTTYAQTFQGRVTITADESTSTAYMELSSLRSEDTAVYYCARGGVEYSSSWDYYYYYGMDVWGQGTTVTVSS
VL: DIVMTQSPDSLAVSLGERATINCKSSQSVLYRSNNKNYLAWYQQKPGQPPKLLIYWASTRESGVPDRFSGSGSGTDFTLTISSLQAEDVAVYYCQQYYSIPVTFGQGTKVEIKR
notes: IgG1; also called ST2 Antibody 41
B17: Human ST2 IgG1 Antibody 38 (antibody, V domains shown)
VH: QVQLVQSGAEVKKPGSSVKVSCKASGGTFSSYAISWVRQAPGQGLEWMGTIIPMFGIADYAQKFQGRVTITADESTSTAYMELSSLRSEDTAVYYCARSSRSSSWYNWYFDLWGRGTLVTVSS
VL: EIVMTQSPATLSVSPGERATLSCRASQSISSSYLAWYQQKPGQAPRLLIYGASTRATGIPARFSGSGSGTEFTLTISSLQSEDFAVYYCQQYYTTPWTFGQGTKVEIKR
notes: IgG1; also called ST2 Antibody 38
B18: Human ST2 IgG1 Antibody 51 (antibody, V domains shown)
VH: QVQLVQSGAEVKKPGSSVKVSCKASGGSFSRSSISWVRQAPGQGLEWMGGIIPIFGAPVYAQDLQGRVTITADESTSTAYMELSSLRSEDTAVYYCARDHPHCSSTSCYYGMDVWGQGTTVTVSS
VL: B17 VL with S28T, Y93G, T94S, T95S, W97L, Q101G
notes: IgG1; also called ST2 Antibody 51
B19: Human ST2 IgG1 Antibody 55 (antibody, V domains shown)
VH: QVQLVQSGAEVKKPGSSVKVSCKASGGTFSSYAISWVRQAPGQGLEWMGDIIPVIDTTNYAQKFQGRVTITADESTSTAYMELSSLRSEDTAVYYCARASGYPFGRWFDPWGQGTLVTVSS
VL: not shown
notes: IgG1; also called ST2 Antibody 55
B20: Human ST2 IgG1 Antibody 53 (antibody, V domains shown)
VH: QVQLVQSGAEVKKPGSSVKVSCKASGGTFSSYAISWVRQAPGQGLEWMGGIIPIFGTANYAQKFQGRVTITADESTSTAYMELSSLRSEDTAVYYCARVPADYYYYYYGMDVWGQGTTVTVSS
VL: not shown
notes: IgG1; also called ST2 Antibody 53

Positions count from the first letter of the chain named.

The assay deals with T1, Human ST2. Briefly: SPR (Carterra), antibody immobilized, ST2 analyte. Here is the method:
Binding of the reformatted human ST2 antibodies to the human and mouse ST2 proteins was evaluated by surface plasmon resonance (SPR), using a high throughput antibody screening and characterization platform from Carterra (Salt Lake City, Utah).
Consider B1, for which the equilibrium dissociation constant (Kd) (commonly the constant that tells how readily two partners part at equilibrium) came out at 81 nM; the koff (in general, the first-order rate constant of dissociation) worked out at 0.029 s⁻¹; the kon (in general, the second-order rate constant of association) was determined as 360000 M⁻¹ s⁻¹.
In the case of B2, the Kd amounted to 22 nM, the koff was 0.02 s⁻¹ and the on-rate (kon) turned out to be 920000 M⁻¹ s⁻¹.
Taken in the same sequence, the figures for B3 were 76 nM, 0.055 s⁻¹ and 730000 M⁻¹ s⁻¹.
In the case of B4, the Kd is 278 nM, the koff came out at 0.088 s⁻¹ and the on-rate constant (kon) was determined as 320000 M⁻¹ s⁻¹.
For B5, in that order: 138 nM, 0.085 s⁻¹ and 620000 M⁻¹ s⁻¹.
Taken in the same sequence, the figures for B6 were 339 nM, 0.042 s⁻¹ and 120000 M⁻¹ s⁻¹.
B7 showed a Kd of 100 nM, an off-rate (koff) of 0.024 s⁻¹ and an on-rate constant (kon) of 240000 M⁻¹ s⁻¹.
For B8, in that order: 691 nM, 0.12 s⁻¹ and 180000 M⁻¹ s⁻¹.
Taken in the same sequence, the figures for B9 were 146 nM, 0.0074 s⁻¹ and 51000 M⁻¹ s⁻¹.
For the molecule B10, binding was characterised by a dissociation constant (Kd) of 146 nM, the koff is 0.024 s⁻¹ and the kon was 170000 M⁻¹ s⁻¹.
For B11, in that order: 213 nM, 0.075 s⁻¹ and 350000 M⁻¹ s⁻¹.
In the case of B12, the dissociation constant Kd worked out at 413 nM, the dissociation rate constant (koff) is 0.12 s⁻¹ and the kon amounted to 300000 M⁻¹ s⁻¹.
Molecule B13 registered a Kd of 269 nM, a koff of 0.085 s⁻¹ and a kon of 320000 M⁻¹ s⁻¹.
Taken in the same sequence, the figures for B14 were 932 nM, 0.15 s⁻¹ and 160000 M⁻¹ s⁻¹.
Taken in the same sequence, the figures for B15 were 57 nM, 0.022 s⁻¹ and 390000 M⁻¹ s⁻¹.
In turn, B16 returned a Kd of 99 nM, a dissociation rate constant (koff) of 0.0024 s⁻¹ and a kon of 24000 M⁻¹ s⁻¹.
For B17, the Kd was 17 nM, the off-rate (koff) came out at 0.0053 s⁻¹ and the kon was 310000 M⁻¹ s⁻¹.
As for B18, binding was put at a Kd of 154 nM, the koff was 0.043 s⁻¹ and the on-rate constant (kon) is 280000 M⁻¹ s⁻¹.
For B19, in that order: 349 nM, 0.1 s⁻¹ and 300000 M⁻¹ s⁻¹.
Taken in the same sequence, the figures for B20 were 740 nM, 0.12 s⁻¹ and 160000 M⁻¹ s⁻¹.
